Test results taken from patent publication US20200385459A1 (University of Texas, published 2020).
Where a chain is given by its changes, count along the chain named. “And” between values parts separate entries of the source, which are not always exact repeats. Equal entries are not always repeated. One block for each binder: values may come before it.

What was measured:
[1] = target: T1, His-tagged recombinant human LRP10 protein, LRP10-516H (human) (UniProt Q7Z4F1); assay: ELISA, coated LRP10, antibody at 62.5 ng/ml
T1 sequence (looked up): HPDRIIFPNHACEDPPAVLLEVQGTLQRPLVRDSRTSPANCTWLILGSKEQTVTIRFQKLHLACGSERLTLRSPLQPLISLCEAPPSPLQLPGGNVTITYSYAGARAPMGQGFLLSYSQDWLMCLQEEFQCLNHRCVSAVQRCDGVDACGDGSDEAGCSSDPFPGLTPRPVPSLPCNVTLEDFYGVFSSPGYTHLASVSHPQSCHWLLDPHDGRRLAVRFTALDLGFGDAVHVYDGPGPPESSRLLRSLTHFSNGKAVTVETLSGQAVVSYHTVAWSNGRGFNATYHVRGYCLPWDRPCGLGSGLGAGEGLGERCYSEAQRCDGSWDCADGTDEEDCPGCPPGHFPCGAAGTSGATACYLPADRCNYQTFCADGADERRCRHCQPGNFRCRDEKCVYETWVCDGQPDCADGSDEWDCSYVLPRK

[2] = target: T1, His-tagged recombinant human LRP10 protein, LRP10-516H (human); assay: ELISA, coated LRP10, antibody at 1000 ng/ml
[3] = target: T1, His-tagged recombinant human LRP10 protein, LRP10-516H (human); assay: ELISA, coated LRP10, antibody at 0 ng/ml (background well)
[4] = target: T1, His-tagged recombinant human LRP10 protein, LRP10-516H (human); assay: ELISA, coated LRP10, antibody at 3.91 ng/ml
[5] = target: T1, His-tagged recombinant human LRP10 protein, LRP10-516H (human); assay: ELISA, coated LRP10, antibody at 250 ng/ml
[6] = target: T1, His-tagged recombinant human LRP10 protein, LRP10-516H (human); assay: ELISA, coated LRP10, antibody at 0.24 ng/ml
[7] = target: T1, His-tagged recombinant human LRP10 protein, LRP10-516H (human); assay: ELISA, coated LRP10, antibody at 15.63 ng/ml
[8] = target: T1, His-tagged recombinant human LRP10 protein, LRP10-516H (human); assay: ELISA, coated LRP10, antibody at 0.98 ng/ml
[9] = target: T2, mouse LRP10 (Lrp10) on C57BL/6 T cells (mouse (Mus musculus), UniProt Q7TQH7 18-713); assay: cell-based or functional assay
T2 sequence (looked up): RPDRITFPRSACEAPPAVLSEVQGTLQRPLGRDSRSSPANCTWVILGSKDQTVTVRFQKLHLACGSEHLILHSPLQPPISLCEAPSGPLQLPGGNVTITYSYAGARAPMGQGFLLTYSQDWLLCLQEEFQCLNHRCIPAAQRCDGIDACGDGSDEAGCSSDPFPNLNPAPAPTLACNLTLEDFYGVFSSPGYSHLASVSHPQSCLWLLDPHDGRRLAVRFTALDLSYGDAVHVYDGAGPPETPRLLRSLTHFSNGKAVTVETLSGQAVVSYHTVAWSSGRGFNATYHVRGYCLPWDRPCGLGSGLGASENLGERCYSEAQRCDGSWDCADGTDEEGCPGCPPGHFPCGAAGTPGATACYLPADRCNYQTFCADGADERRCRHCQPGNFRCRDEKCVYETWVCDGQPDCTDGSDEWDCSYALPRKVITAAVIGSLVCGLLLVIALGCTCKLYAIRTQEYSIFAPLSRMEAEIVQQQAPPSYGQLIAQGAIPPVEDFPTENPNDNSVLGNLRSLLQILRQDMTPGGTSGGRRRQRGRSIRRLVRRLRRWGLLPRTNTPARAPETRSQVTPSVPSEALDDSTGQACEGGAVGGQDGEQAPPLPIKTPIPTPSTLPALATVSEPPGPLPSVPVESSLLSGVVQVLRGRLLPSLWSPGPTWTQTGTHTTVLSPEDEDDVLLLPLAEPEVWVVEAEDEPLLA

[10] = target: T3, His-tagged recombinant human LRP10 protein, LRP10-516H (human, UniProt Q7Z4F1 17-440); assay: ELISA, coated LRP10, serial dilution of antibody
T3 construct: The ELISA protocol calls the coated protein 'LR10'; also called target protein LR10; target antigen; not shown: His tag
T3 sequence (looked up): T1 sequence (looked up)
Description: 1) Coat the target protein LR10 (1 μg/ml, 0.1 μg/well) in a certain coating buffer (0.1 M NaHCO₃, pH 9.6). Incubate overnight at 4° C. [0234] 2) Wash the wells 3 times with 300 μL washing buffer (0.1% PBST) per well. [0235] 3) Block the wells with 300 μL blocking buffer (3% BSA) for 1 h at 37° C. [0236] 4) Discard the blocking buffer and wash the plate 3 times with the washing buffer, slapping the plate face-down onto a clean section of paper towel each time. [0237] 5) Add 100 μL of a serial dilution of antibodies per well. Incubate at 37° C. for 1 h. [0238] 6) Wash 3 times with the washing buffer. Dilute HRP-goat anti-human IgG (1:4,000) in the blocking buffer (3% BSA). Add 100 μL of diluted conjugate per well and incubate at 37° C. for 1 h. […] 7) Wash 3 times with the washing buffer. Dissolve Tetramethylbenzidine (TMB) substrate (Sigma, USA) in […] citrate-phosphate buffer and add 1 μL/mL H₂O₂ to the solution. Add 100 μL of substrate solution per well and incubate at room temperature for 15 minutes. [0240] 8) Add 100 μL of 2 mol/L H₂SO₄ solution to stop the reaction. [0241] 9) Read plates using a microplate reader set at 490 nm.
For the 8 well-expressed antibodies, we tested their binding activities to the target antigen by ELISA (Table 7 and FIG. 11).

[11] = target: T3, His-tagged recombinant human LRP10 …; assay: ELISA on coated LRP10

B1: Clone 6 (AB6) (antibody, human IgG1, V domains shown)
VH: EVQLLESGGGLVQPGGSLRLSCAASGFTFSSYAMSWVRQAPGKGLEWVSSIPSRGQATKYADSVKGRFTISRDNSKNTLYLQMNSLRAEDTAVYYCAKSRHTFDYWGQGTLVTVSS
VL: DIQMTQSPSSLSASVGDRVTITCRASQSISSYLNWYQQKPGKAPKLLIYDASLLQSGVPSRFSGSGSGTDFTLTISSLQPEDFATYYCQQTSAGPGTFGQGTKVEIK
- ELISA signal (plate read at 490 nm) [1]: 0.09 and 0.0989
- ELISA signal (plate read at 490 nm) [2]: 0.289 and 0.349
- ELISA signal (plate read at 490 nm) [3]: 0.0595 and 0.0594
- ELISA signal (plate read at 490 nm) [4]: 0.0615 and 0.0582
- ELISA signal (plate read at 490 nm) [5]: 0.128 and 0.133
- ELISA signal (plate read at 490 nm) [6]: 0.0606 and 0.0573
- ELISA signal (plate read at 490 nm) [7]: 0.0656 and 0.0659
- ELISA signal (plate read at 490 nm) [8]: 0.0588 and 0.0556

B3: Clone 3 (AB3) (antibody, human IgG1, V domains shown)
VH: B1 VH with S50Q, P52G, S53T, R54M, Q56R, A57P, K59T, R100G, H101K, T102K
VL: B1 VL with D50R, L53R, T91P, S92T, A93S, G94L, G96L
notes: Expressed as a full antibody in 293F cells, protein A purified; also called AB3 (L3 + H2); AB3: L3 + H2
- EC50 [10]: 0.0349 µg/mL

B4: Clone 1 (AB1) (antibody, V domains shown)
VH: B1 VH with Y32Q, S53P, R54G, Q56P, A57N, R100Y, H101P, T102S
VL: B1 VL with D50N, L53D, T91S, A93R, G94T, G96T
notes: also called AB1 (L1 + H1); AB1: L1 + H1
- EC50 [10]: 0.013 µg/mL

B5: Clone 2 (AB2) (antibody, human IgG1, V domains shown)
VH: B1 VH with Y32Q, S53P, R54G, Q56P, A57N, R100Y, H101P, T102S
VL: B1 VL with D50A, L53P, T91V, S92A, A93R, G94T, G96N
notes: Expressed as a full antibody in 293F cells, protein A purified; also called AB2 (L2 + H1); AB2: L2 + H1
- migration rate of T cells in response to SDF-1, transwell [9]: ~2 fold higher than vehicle
- EC50 [10]: 0.0148 µg/mL

The next lines start with the values.

- migration rate of T cells in response to SDF-1, transwell [9]: ~2 fold higher than vehicle
- EC50 [10]: 0.0357 µg/mL
B2: Clone 7 (AB7) (antibody, human IgG1, V domains shown)
VH: B1 VH with P52A, S53T, R54T, Q56N, A57T, K59Y, S99N, R100T, H101A
VL: B1 VL with D50A, L53T, T91N, S92D, A93Y, G94Y, G96T
notes: Expressed as a full antibody in 293F cells, protein A purified; also called AB7 (L7 + H6); AB7: L7 + H6

- binding result [11]: no binding
B6: Clone 9 (AB9) (antibody, human IgG1, V domains shown)
VH: B1 VH with P52Y, S53T, R54S, Q56A, K59T, R100Y, H101P, T102S
VL: B1 VL with D50N, L53D, T91S, A93R, G94T, G96T
notes: Expressed as a full antibody in 293F cells, protein A purified; also called AB9 (L1 + H8); AB9: L1 + H8

- migration rate of T cells in response to SDF-1, transwell [9]: ~2 fold higher than vehicle
- EC50 [10]: 0.0117 µg/mL
B7: Clone 8 (AB8) (antibody, human IgG1, V domains shown)
VH: B1 VH with P14L, Y32Q, S53P, R54G, Q56P, A57N, R100Y, H101P, T102S
VL: B1 VL with D50N, L53D, T91S, A93R, G94T, G96T
notes: Expressed as a full antibody in 293F cells, protein A purified; also called AB8 (L1 + H7); AB (L1 + H7)
